From patent US11110182B2, “Multifunctional RNA nanoparticles and methods for treating cancer and therapeutic resistant cancer” (University of Cincinnati, priority 2016, dated 2021)

B1: pRNA-HER2apt-siMED1: 3-WJ pRNA nanoparticle bearing a HER2-targeting RNA aptamer and two different MED1 siRNAs; strands p1 SEQ ID NO: 3, p2 SEQ ID NO: 4 (nucleic acid)
chain 1: GGACAGUGAAAGUGAGUCAAAGGAUCAAUCAUGGCCAAAGAUGUUACUUUGAGAGCCUU
chain 2: GGCUCUCAAAGUAACAUCUAAGGCCAUGUGUAUGUGGGGGGAGGACGAUGCGGUCUGCUGUGCUUGAUAUGCCCCAGACGACUCGCCCCCCACAUACUUUGUUGAUCCAAUGACUCACUUUCACUGUCCUU
modifications: 2'-F modification; third strand may lack entry; pRNA-HER2apt-siMED1, p1; pRNA-HER2apt-siMED1, p2
B2: pRNA-HER2apt^mut-siMED1: control pRNA nanoparticle with mutant HER2 aptamer; strands p1 SEQ ID NO: 5, p2 SEQ ID NO: 6 (nucleic acid)
chain 1: B1 chain 1
chain 2: GGCUCUCAAAGUAACAUCUAAGGCCAUGUGUAUGUGGGAUGAGGAGUAUGAAGAUACCUGUACUUGAUAUGCCCCAGACGACAUUCCCCCCACAUACUUUGUUGAUCCAAUGACUCACUUUCACUGUCCUU
modifications: pRNA-HER2apt(mut)-siMED1, p1; pRNA-HER2apt(mut)-siMED1, p2

System: BT474 orthotopic xenograft tumors
Assay: In vivo targeting and biodistribution imaging of AF647-labeled nanoparticles
Set-up: species or system mice
Settings: for signals in liver and kidney, biodistribution: AF647 fluorescence of excised organs; for accumulation in the xenograft tumors, biodistribution of excised organs and tumors: AF647 fluorescence of excised tumors; for localization in frozen tumor sections (penetration to tumor cells): confocal microscopy, microvessels stained with anti-CD31
Description: FIG. 2A) Confocal microscopy analyses of the internalization of AF647-labeled control and pRNA-HER2apt-siMED1 nanoparticles by BT474 cells. Scale bar: 10 μm. FIG. 2B) Flow cytometry assays of the cellular uptake of AF647-labeled control and pRNA-HER2apt-siMED1 nanoparticles by BT474 cells. FIG. 2C) IVIS Lumina live imaging of BT474 orthotopic xenograft mice 24 hrs after i.v. injection of indicated AF647-labeled pRNA nanoparticles (10 mg/Kg). FIG. 2D) Major organs and tumors of above mice were excised and imaged for AF647 fluorescence. FIG. 2E) Frozen tumor sections were examined for localization of AF647-labeled pRNA nanoparticles (red) using confocal microscopy. The blood vessels were stained with anti-CD31 primary antibody and Alexa488-conjugated secondary antibody (green). The nuclei were stained with DAPI (blue). Scale bar: 50 μm. FIG. 2F) The fluorescence intensity of AF647-labeled pRNA nanoparticles (red) in frozen tumor sections was quantified with Image-pro Plus software.
Migration and metastasis assay. The 8-μm-pore-size polycarbonate membrane, which separates the two chambers of a 6.5-mm Transwell (Costar), was coated with or without 1:8 DMEM-diluted Matrigel (Corning). Transwell assay was performed as previously described.^57 Briefly, BT474 cells were treated with pRNAs alone or together with 4-hydroxy-tamoxifen (4-OHT) for 48 h and starved with serum-free DMEM containing 0.2% BSA overnight. On the next day, cells were collected and 2×10^5 cells were seeded to the upper chamber of Transwell. The lower chamber was filled with 600 μL DMEM medium containing 10% FBS. After incubation at 37° C. for 24 h, cells on the membranes were fixed and stained with 0.1% crystal violet in 20% ethanol solution. Cells at top side of membranes were removed completely, and cells at the bottom side were examined with an Olympus SZX12 microscope and counted. • Mammosphere culture and breast cancer stem cell analyses. BT474 cells were treated with pRNAs for 48 h. Then, cells were suspended in DMEM/F12 medium supplemented with 1×B27 (Thermo Fisher), 20 ng/mL bFGF and 20 ng/mL EGF (R&D), and added into 24-well ultralow attachment plates. After treatment with or without 1 μM 4-OHT for 7 days, mammosphere formation was recorded using an Axiovert S100 TV inverted microscope (Zeiss). Xenograft tumor tissues were cut into small pieces and digested with trypsin and collagenase at 37° C. for 1 h, and tumor cells were collected and rinsed with pre-cold PBS. All cells were stained with FITC-conjugated anti-CD44 antibody and PE-conjugated anti-CD24 antibody (BD Pharmingen) in the dark on ice for 30 min. After resuspension with 0.5 mL PBS buffer, CD44^+/CD24^−/low cell population was analyzed by flow cytometry. • Orthotopic xenograft breast tumor mouse model, in vivo imaging and anti-tumor therapy. Six-week-old female athymic nude mice were purchased from Charles River Laboratories, and all animal procedures were performed under IACUC-approved protocols at the University of Cincinnati. Athymic nude mice were orthotopically injected with 1×10^7 BT474-luc cells mixed with matrigel into the fat pads of the forth pair of mammary glands. When the tumor sizes reached 100-150 mm^3, the mice were randomly divided into four groups (4/group) and intravenously (i.v.) injected with pRNAs (4 mg/Kg) once a week for three weeks. For tamoxifen treatments, 0.5 mg tamoxifen (Sigma) dissolved in sesame oil was intraperitoneally (i.p.) injected into mice 5 days a week for three weeks. The tumor volume was monitored every 3 days, and tumor size was calculated using the formula: volume=0.5×(width)^2×(length). For in vivo pRNA nanoparticle targeting and tumor imaging, mice were i.v. injected with AF647-conjugated pRNA nanoparticles or i.p. injected with D-luciferin and imaged using the IVIS Lumina imaging system with Living Images 3.0 software (Caliper Life Sciences). […]

Molecule	accumulation in the area of the xenograft tumor, live animal imaging (AF647-conjugated, 10 mg/Kg i.v., 24 hrs)	signals in liver and kidney, biodistribution	accumulation in the xenograft tumors, biodistribution of excised organs and tumors	localization in frozen tumor sections (penetration to tumor cells)
B1	strongly accumulated	low levels of residual signals	predominant accumulation	very effectively penetrated to tumor cells
B2		low levels of residual signals	not	remained in the microvessels
